Publication PMC11099023

Target: Asparaginase-like 1 protein (ASRGL1), recombinant full-length (UniProt Q7L266)
Test: differential scanning fluorimetry (protein thermal shift assay); recombinant ASRGL1 with increasing concentrations of TDP-43 in PBS (10 mM phosphate, 150 mM NaCl, pH 7.4), 30 min at 25 °C, ramp 25 to 99 °C; Tm plotted against TDP-43 concentration, inflection point of a sigmoidal fit …

Sequence of UniProt Q7L266 (Q7L266 whole entry): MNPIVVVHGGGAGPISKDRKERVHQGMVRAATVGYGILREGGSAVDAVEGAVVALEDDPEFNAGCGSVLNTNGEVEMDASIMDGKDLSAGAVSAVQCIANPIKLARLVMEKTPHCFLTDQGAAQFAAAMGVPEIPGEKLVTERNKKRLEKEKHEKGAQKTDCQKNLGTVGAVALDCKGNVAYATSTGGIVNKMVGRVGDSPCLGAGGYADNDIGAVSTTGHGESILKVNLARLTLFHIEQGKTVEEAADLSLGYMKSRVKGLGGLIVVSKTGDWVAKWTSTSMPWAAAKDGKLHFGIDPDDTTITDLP

EC50: 36.1 nM
shift in Tm of ASRGL1 with 1 μM TDP-43: 10 °C
Substance: TAR DNA-binding protein 43 (TDP-43), native form, recombinant full-length (from UniProt Q13148 1-414) (natural protein)
